Data reported in paper PMC3290569, “Macro-to-Micro Structural Proteomics: Native Source Proteins for High-Throughput Crystallization” (PLoS ONE, 2012).

Molecular target: the molecule itself
Assay: crystal structure; novel structures of native source E. coli proteins, solved by molecular replacement and refined; oligomer seen in the crystal

B1: 6-phospho-beta-glucosidase (BglA) (enzyme, Escherichia coli, UniProt Q46829 1-479, looked up)
chain: MIVKKLTLPKDFLWGGAVAAHQVEGGWNKGGKGPSICDVLTGGAHGVPREITKEVLPGKYYPNHEAVDFYGHYKEDIKLFAEMGFKCFRTSIAWTRIFPKGDEAQPNEEGLKFYDDMFDELLKYNIEPVITLSHFEMPLHLVQQYGSWTNRKVVDFFVRFAEVVFERYKHKVKYWMTFNEINNQRNWRAPLFGYCCSGVVYTEHENPEETMYQVLHHQFVASALAVKAARRINPEMKVGCMLAMVPLYPYSCNPDDVMFAQESMRERYVFTDVQLRGYYPSYVLNEWERRGFNIKMEDGDLDVLREGTCDYLGFSYYMTNAVKAEGGTGDAISGFEGSVPNPYVKASDWGWQIDPVGLRYALCELYERYQRPLFIVENGFGAYDKVEEDGSINDDYRIDYLRAHIEEMKKAVTYDGVDLMGYTPWGCIDCVSFTTGQYSKRYGFIYVNKHDDGTGDMSRSRKKSFNWYKEVIASNGEKL
notes: 6-phospho-beta-glucosidase BglA, Escherichia coli, native source protein; source: purified from E. coli DH5α cells (CaptoQ, phenyl sepharose, MonoQ)
stoichiometry N: 2

B2: Glutamate dehydrogenase (GDH) (enzyme, Escherichia coli, UniProt P00370 1-447, looked up)
chain: MDQTYSLESFLNHVQKRDPNQTEFAQAVREVMTTLWPFLEQNPKYRQMSLLERLVEPERVIQFRVVWVDDRNQIQVNRAWRVQFSSAIGPYKGGMRFHPSVNLSILKFLGFEQTFKNALTTLPMGGGKGGSDFDPKGKSEGEVMRFCQALMTELYRHLGADTDVPAGDIGVGGREVGFMAGMMKKLSNNTACVFTGKGLSFGGSLIRPEATGYGLVYFTEAMLKRHGMGFEGMRVSVSGSGNVAQYAIEKAMEFGARVITASDSSGTVVDESGFTKEKLARLIEIKASRDGRVADYAKEFGLVYLEGQQPWSLPVDIALPCATQNELDVDAAHQLIANGVKAVAEGANMPTTIEATELFQQAGVLFAPGKAANAGGVATSGLEMAQNAARLGWKAEKVDARLHHIMLDIHHACVEHGGEGEQTNYVQGANIAGFVKVADAMLAQGVI
notes: glutamate dehydrogenase, Escherichia coli, native source protein; hexamer (dimer of trimers); source: purified from E. coli DH5α cells (CaptoQ, phenyl sepharose, MonoQ)
stoichiometry N: 6

B3: Glucose-6-phosphate isomerase (pGI) (enzyme)
chain: not shown
notes: glucose-6-phosphate isomerase, Escherichia coli, native source protein; also called phosphoglucose isomerase; source: purified from E. coli DH5α cells (CaptoQ, phenyl sepharose, MonoQ)
stoichiometry N: 2
